The term Kd denotes the equilibrium constant for the complex coming apart. Lower therefore signals higher affinity. In general, koff refers to the first-order rate constant of dissociation. Lower therefore signals a long-lived complex. What is called kon is a measure of how fast the partners come together. Low readings indicate slow association, high ones fast association.

Several values for one entry are separate records, joined by “and”; a condition that tells them apart may be missing. Equal values may be shown once. No end group written: not given here.

Here are results for one molecule from patent publication US20240272082A1 (ARIZONA BOARD OF REGENTS ON BEHALF OF ARIZONA STATE …, published 2024).

Assay [1] has as its target T1, proprotein convertase subtilisin/kexin type 9 (PCSK9) (UniProt Q8NBP7 31-692, limits assumed).
T1 construct: Analyte in solution in both CSOD and SPR; also called PCSK9 protein
The assay can be described thus: CSOD; comparison of KD values of Table 2.

Assay [2] has as its target T1, proprotein convertase subtilisin/kexin …. The assay can be described thus: CSOD; phage immobilised on fiber probe, PCSK9 in solution, global first-order fit.
Source text: The fiber probes were switched from a well containing a buffer to a well containing PCSK9 at 0 s for the measurement of the association process (downward facing arrow) and then switched back to the buffer well at the time indicated by the upward facing arrow for the measurement of the dissociation process.
The binding of different concentrations of PCSK9 proteins to the functionalized probes was studied in a 40-time diluted PBS buffer. For each measurement, a baseline was first established by dipping the functionalized fiber tip into a microplate well with a buffer; then, the fiber was switched to another well containing PCSK9 protein solution to measure the association curve. Finally, the fiber was moved back to the buffer well and the dissociation process was recorded. By fitting the kinetic curves at different concentrations globally with first order kinetics using Scrubber v.2.0c, the association rate constants (ka), dissociation rate constants (kd), and equilibrium constants (KD) for all samples are summarized in Table 2.

T1 sequence (Q8NBP7 31-692 limits assumed): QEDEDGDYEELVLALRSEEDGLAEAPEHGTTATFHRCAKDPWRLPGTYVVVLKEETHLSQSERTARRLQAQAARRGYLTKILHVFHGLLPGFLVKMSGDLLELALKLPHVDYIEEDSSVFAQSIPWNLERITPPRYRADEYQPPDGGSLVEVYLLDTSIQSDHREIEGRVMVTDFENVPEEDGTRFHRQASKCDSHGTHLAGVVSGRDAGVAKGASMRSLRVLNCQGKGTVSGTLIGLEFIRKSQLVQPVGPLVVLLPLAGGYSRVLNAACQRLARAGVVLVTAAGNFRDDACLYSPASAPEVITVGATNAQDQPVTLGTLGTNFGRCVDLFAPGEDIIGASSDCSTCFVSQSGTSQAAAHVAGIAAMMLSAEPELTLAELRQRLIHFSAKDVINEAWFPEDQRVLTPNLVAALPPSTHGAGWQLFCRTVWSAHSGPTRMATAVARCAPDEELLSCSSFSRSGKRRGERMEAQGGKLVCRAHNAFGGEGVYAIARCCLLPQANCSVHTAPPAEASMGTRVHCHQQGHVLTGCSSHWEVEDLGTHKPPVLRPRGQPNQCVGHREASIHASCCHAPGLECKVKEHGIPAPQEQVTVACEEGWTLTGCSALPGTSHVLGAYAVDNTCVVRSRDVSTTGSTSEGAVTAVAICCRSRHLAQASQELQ

B1: SG pep2-8-2478 (M13 phage-displayed peptide, fused to pVIII) (peptide)
peptide: SGTVFTSWEEYLDWV
modifications: not fully specified
notes: Samples A and B are identical replicates prepared separately; also called Sample 5A; Sample 5B; not shown: M13 major coat protein pVIII (display carrier) and any linker between peptide and pVIII
As to B1, the “fold affinity change against Sample #4 (no SG pep2-8-2478)” value in assay [1] was around 2 fold. In assay [2], the dissociation constant (Kd) is 370 nM and 380 nM; the koff is 0.00154 s⁻¹ and 0.00119 s⁻¹; the kon is 4200 M⁻¹ s⁻¹ and 3130 M⁻¹ s⁻¹.
